Laboratory results as given in the Human Domainome abundance scans (Beltran et al. 2025).

B1: Retinoic acid receptor beta, residues 85 to 161; numbered along this chain, P10826 (parent)
chain: YKPCFVCQDKSSGYHYGVSACEGCKGFFRRSIQKNMIYTCHRDKNCVINKVTRNRCQYCRLQKCFEVGMSKESVRND

Variants of: B1
Test: abundance fitness (aPCA) (normalised: wild type 0, dead -1); higher = more abundant; growth selection in yeast, the domain comes from the species named
Settings: Homo sapiens

Abundance fitness, by site and new letter:
C64: P -0.689; Y -1.17; G -0.658; I -0.729; D -0.996; K -0.885; H -0.646; R -0.732; E -0.799; T -0.769; M -0.412
E66: F -0.036; P -0.595; A -0.105; N -0.028; Y -0.136; T 0.008; L -0.039; R 0.011; G -0.014; D 0.096; W -0.139; S -0.078; V -0.032; M 0.082; C -0.153; Q -0.011; I -0.092
R53: S 0.126; I 0.127; T -0.002; F 0.057; G 0.003; Y 0.116; E 0.102; H 0.016; K 0.071; C 0.084; W -0.026; D -0.018; M 0.195; N 0.123; L 0.148; P 0.103; Q 0.19; A 0.183; V 0.211
R60: N -0.845; C -0.155; V -0.369; G -0.491; W 0.114; M 0.199; E -0.598; L 0.21; K -0.039; T -0.001; I -0.653; S -0.583; P -0.722; D -0.901; Y -0.002; Q -0.003
G68: V -0.81; D -0.663; L -0.807; C -0.698; N -0.338; H -0.743; S -0.595; E -0.763; A -0.804; W -0.779; M -0.77; I -0.95; F -0.204; K -0.392; Y -1.05; Q -0.698; T -0.687; P -0.738; R -0.681
N54: Q 0.183; M 0.216; D 0.345; A 0.074; H 0.067; F 0.089; E 0.217; P -0.003; G -0.007; I 0.233; S 0.136; T 0.185; R 0.036; Y 0.112; W -0.088; K 0.183; C -0.267; V 0.11
T52: W -0.047; F -0.188; N 0.023; Q 0.027; K -0.015; M 0.02; D 0.046; H -0.397; R -0.745; S 0.032; G -0.029; V -0.021; I -0.053; E 0.123; L 0.038; C -0.451
V67: S -0.059; G -0.161; M -0.063; T -0.178; D -0.8; K 0.017; R -0.291; W -0.636; Y -0.645; A -0.012; H -0.354; F -0.054; E -0.282; C -0.172; L -0.084; Q -0.035
F65: P -0.542; S -0.31; K -0.081; N -0.128; L 0.014; C -0.197; W -0.174; M 0.026; D -0.423; G -0.442; H -0.253; V -0.019; A -0.291; E -0.024; T -0.02; Q -0.156; I 0.119; R -0.22; Y -0.009
K63: L -0.272; H -0.027; C -0.641; T -0.11; W -0.772; G -0.525; Y -0.37; P -0.847; I -0.321; A -0.306; S -0.443; R -0.041; E -0.588; D -0.413; N -0.519; Q -0.305
